{"source": "the DeepSol protein solubility set", "data": [{"assay": "soluble on expression in E. coli; label from the status in PepcDB or PDB records", "values": [{"sequence": "MGSDKIHHHHHHMILSVSRRTDIPAFYSEWFFNRLKEGFVYVINPFNERKVSKVELNKETVDLFVFWTKDAEPMLKRLDELNEFKYYFQFTITSYRNDVERMTRKKKDIIDTFRILSKKIGKEKIIWRYDPIFLNDFYTKEYHYRWFERFCDKLEGYTDKCIISFLDLYKKTEINTRCLNIHKMDEKSMRQVAKQLSIIANKHNIIIETCSEGIDLSDYGIKKGSCIDKNLISKIIDFGVELKKDNNQRELCGCVKSVDIGQYNTCKHHCLYCYANFNEKLLNDSILKYNPKAPTLAYTLKGDEKITVREMESIKGNKQKQLDLFKNIKQGE", "soluble on expression in E. coli": "not soluble"}, {"sequence": "MGSDKIHHHHHHMINAEPIISKMKNQKINYDKVLKKLIGQWEREAIRPKILLHSCCAPCSTYTLEFLTQYADIAIYFANSNIHPKNEYLRRAKVQEQFVEDFNRKTGANVKYIEAPYEPHKFVKMVKDKELADEKEGGLRCTACFEMRLDIVAKAAVEHGYDYFGSAITLSPKKNAQLINELGMDVQKIYDVNYLPSDFKKSKGYERSIEMCNDYNIFRQCYCGCVFAAMQQGIDFKTVNKEAKAFLEQYPD", "soluble on expression in E. coli": "not soluble"}, {"sequence": "MGSDKIHHHHHHMINSTFLTNRVFSTWYYFSLLLYKEKGCDLVKTPKIVVLGAGYGGMITTVRLQKALSVNEAEITLVNNNSYHYQATWLHESAAGTLQDEKICLDIQDVIDTNKVNFVQDTVVEIKAAEKRIILKDGELEYDYLVIGLGFESETFGITGLKEHAFSIANINATRQIREHMEASFAKYADEKRDELVTIVVGGAGFTGIEYVGELANRVPELCKQYNVPREKARIICVEAAPTALPGFDPALVEYAVKQLEKKGVEFRIGTAIKEATEEGIIVANGDDTELIKSETVVWAAGVRGNGIVEESGFEAMRGRVKVDEYMHAPGYEDVFMVGDAALIINEEINRPYPPTAQIAIQQGYNIAHNLTVLVRGKGEMKKFVFDNKGSVCSLGHDDAMGVVMGKKLTGWKASFMKKVIDNRYLFLLGGPLLVLKKGKLKFF", "soluble on expression in E. coli": "not soluble"}, {"sequence": "MGSDKIHHHHHHMIPKNIHLIFLRKDEPFPELFEKCKQEIQVNHPDWNIRLYNKDDAQDILNQDLPEYIEAYNAFYHNVQKADFLRLALVYLYGGFYMDLDMLSLKPLDELRKYNLVLGEEKIVCQAEQEALNLRYRLRIANYMFGGIPKHPFLHRIMDEMAERATIILKSQQEILDITGPGLLTDTYWDNYGMYTDITLLRNTDKRCRQPYHNEISCHFGDYAAHLHAGTWRTGI", "soluble on expression in E. coli": "not soluble"}, {"sequence": "MGSDKIHHHHHHMIQPVSCICPIAAKLITSRPAQKLLPAPESTTARASEAATSLAAAITAASMCLSTAFILSARVRVTWATWSRISTDTRALSSAITAPPSGCRLNVACSLPRFGRAFQPDARARRTGSFPDRDLISPDLPLPACARAARSWAMTDSRQTPLAQSLPASVPFVGPETHERQRGAPFVARLGANENLFGVSPKAIAAMQASAAEIWKYGDAESYELRAALSALHGIAPEHIMVGEGIDGLLGNLVRLYVGAGDAVVTSLGAYPTFNYHVAGFGGDLHTVPYKDDHEDIKALMAKAHEVGAKLVYLANPDNPMGSWHRGADIVAALDDLPEGSLLVLDEAYVECAPKGTAAPVDVTDPRVIRMRTLSKAYGMAGARVGYAMGAVEVISAFHKVRNHFGMNRCAQIGATEAIKDQAWLAHVQAEIATAREEISRIARENGLTPLPSATNFVAIDCGRDGAFAKAVLEALVARDIFVRMPFAAPQNRCIRVSCGPERERRAFAEALPLALKDAQNGA", "soluble on expression in E. coli": "not soluble"}, {"sequence": "MGSDKIHHHHHHMIRFKDIHIPKPCSVEYDTLPGDDIKRFCGSCEKYVYDFRGKDQAYLNAVFSATGKACGIYYADQIQASPALKTNRPFYSSFVSKLIATSLFLRIFLTSNNTKAHRTEPQTIVQQTTDSTELKTIHTGNDKAMYRVTVDIYKNDTLEESFLLENQNSIYLPDSIKPLDKIKVVVSTVRYNIPTSKNRTRSGKYMSNKTYYTTEQKKTYHFNFAGCNKIIIKIRHTKFIHIFLKKRTAIMGLVCPSDFW", "soluble on expression in E. coli": "not soluble"}, {"sequence": "MGSDKIHHHHHHMISDTTIRKLVDYISLNACSVNSSGLYNGKSGISLALFETAKCLQDTEIEDKAFSLFQESLIRKTNDYGFENGMSGIGYVLIYLITNKLIDADFEDLFGDQREAIIKHFENIDKQPDKLLVSYKIIYFLFVLDKLQKQDERIYSIIEKIFQGLELYLSLQFFDWKNIYYINSKDYVLQMYEAYLKLVDFCNYKYFSKSLMDSYVTLYSEGRIASSLVRGYYLHSIITKNNMVGFNDVIRDHIRYGQKNINPAILFLDQKINLTGIIENADENRVKIQRIEMDLFEESLERIKRMVRPNCIHVGYQYGLARYLGFCANKKFPLL", "soluble on expression in E. coli": "not soluble"}, {"sequence": "MGSDKIHHHHHHMISVCIATYNGEKYLAEQLDSILLQVSEEDELIISDDGSTDHTLEILRTYAANYPQIQLLQGPGQGVIANFAFALTHTKGEVIFLADQDDVWLPNKVTTVTEYFETHPDIQVVISDLKIVDADLQVTNPSYFKFRKVKPGFWRNAIKSGYIGAGMAFRQEMKNVILPIPPEVPMHDMWIGLLAARKKQTGLIKEPLVLYRRHGANVSPIITKTSFQQKLNWRVNLLKALHQRLKEQR", "soluble on expression in E. coli": "not soluble"}, {"sequence": "MGSDKIHHHHHHMITDENKKLAQWAMDYALKNGCQAAKVLLYSSSNTSFELRDAKMDRLQQASEGGLSLSLYVDGRYGSISTNRLNRKELETFIKNGIDSTRYLAKDEARVLADPSRYYKGGKPDLKLYDAKFASLNPDDKIEMAKAVAEEALGKDERIISVGSSYGDGEDFAYRLISNGFEGETKSTWYSLSADITIRGEGEARPSAYWYESSLYMNDLIKKGIGQKALERVLRKLGQKKVQSGKYTMVVDPMNSSRLLSPMISALNGSALQQKNSFLLNKLNEKIASDRLTLTDEPHLVKASGARYFDNEGIATERRSIFDKGVLNTYFIDTYNAKKMGVDPTISGSSILVMETGDKNLDGLIAGVEKGILVTGFNGGNNNSSTGDFSYGIEGFLIENGKLTQPVSEMNVTGNLITLWNSLVATGNDPRLNSSWRIPSLVFEGVDFSGL", "soluble on expression in E. coli": "soluble"}, {"sequence": "MGSDKIHHHHHHMITFDEIIPGVTDILKEYSKELDQMAPILVNRDLNGRVRLIIKDDIRGNSHAEGVLDKISKALHQRLGAHGFPPERIVLFETDMQTVLAETPCFPLDGVEGVSVADRLVTESNWSKGIAPTETVPRIVFFSIKGGVGRSTSLAAAAWALAESGKRVLVLDMDLESPGLSSSLLPQDRRPKFGITDWLVEDLVDNGDRVISDMIATSPLSRNGDIYVVPAHGADPGEYIAKLGRVWMPKVNAEGRRILWVQRLQGLLNALEDRLKPDVILLDSRAGIDEVASACVTDLGASSVLLFALDGDQTWSGYRILFRHWRQSGVVRDIRERLQVVGAMIPDVDAAGYYADLLESSWNAFSEELYDEIPAGLSANGEDYWNFDQADEAAPHYPWSIRWNRGFSAMRSLHNRFDTVDAEQVNYVFGDFLTGLAASVQNEEDER", "soluble on expression in E. coli": "not soluble"}, {"sequence": "MGSDKIHHHHHHMITHRSDLNANYLLNALPRSEWESLAQHVELVRLRAGELLTDSGQRIVHVYFPTTSVVSLLSLLEDGATVEIAAVGNEGLVGVPVVTGGDTMPCRVEVRSPGLAYRIPARLLRSELPRTPTLQRVTLLYVQAMLTQIAQTAACNRHHSLNKQLCRWLLLAVDRLSSNELVITQQVIANMLGVRREGVTEAAGKLEDLGLIHHSRGHITVLDRCGLEKHSCECYKLVKREYDRLLPALAHA", "soluble on expression in E. coli": "not soluble"}, {"sequence": "MGSDKIHHHHHHMITIKKGLDLPITGEPSREISEHRPAHVALIGYDYVGMKPTMNVKEGDIVAKGQSVFEDKKRAGVIYTAPAAGKVVAIKRGERRVFESLVIAVDPNGAEVEFQRYDSQQLADLDSEVVETQLLASGEWTAFRTRPYSRAPEIGARPHAIFVTAMDTNPLAFDPMLLINEQLQAFNDGLAVLSTLSPKTFVCHHGNSQLTPVAKTAANNVTEYHSFAGKHPAGLAGTHIHFLHPIMRGTSVWTIGYQDVIAIGKLFTSGRLYTRRLLSLAGPAVSNPHVIATERGADIAALTKGNLTAGENRVISGSVLSGRQVFANIAYLGRFDNQVSVLAEGRERPAFHFFTPGANRFSKLPIYISQFFGGKKYNFTTTSNGSPRAMVPIGVYEEVMPQDYLPTQLLRALIVEDIVTAVDLGVLELDEEDLALCTFVSPGKYEFGDILRDNLTRIELEG", "soluble on expression in E. coli": "not soluble"}, {"sequence": "MGSDKIHHHHHHMITVRDLSWQYEPLVDGGKPVDSLKHVSFDIKSGSFVGVIGPTGAGKSTLCMALAGIIPNLADGTMTGLVEVNGMNTSRHSVSALSERIGYVQQDPEAQLFCASVEDEIAFPLENRGIAPDIIDKQIDVMLDLVGMTGYRKRVPASLSGGQMQRVAIAAALAAEPDVLILDEPTAALDPEGKQEVFDVLERIRQTRSMTVIMAEQDTEHIAYWADQVLFMVNGELVRNGDASLFVREKGLLESSGVQVADDPLPQVKAVQQGKKHKKDKKNQPERSKDVVISLDHVSYQYERGGNASKALDDVTFDIERGSFIGLIGRNGSGKTTLAKHLNGLIRPTQGTVTVDGLDASKHSVGEMAAHVGFVFQNPDHQIFCSTTKEEIAFGPTALGLDGATVFKRVDEMLTLFDLHRYEDVSPATLGYGERRAVALSSVLAMRTPILVLDEPTAGLDHRLAARFLGTIEKLNQRGVTIVMISHDMRAVYRYCTHVLELEDGKVVQYGPIDRSEAAQKQSRTIRKPRKSNGPVSATHVLLKVTKHEEGRH", "soluble on expression in E. coli": "not soluble"}, {"sequence": "MGSDKIHHHHHHMIYLKIIRGFFSALREHPQSQSIPVIFVSALDETANQIQGLQGGAIDYLVKPVQPDILKLRLANLLATVNLQRDLQANYDNMLELSRLRDCVDELIHHDLKSPLSAISAMLQRLSQDKSCPKGWRSKLTAIHDLTMQSINTVNLSSEIFKIETGRFILKPERFSAHGLVKQVLHSMHVTFHHKQLIAFQFPDEDPNGQFDVLADETLTYSLLLNLIKNAFEASTMRTKVAIHLSIEQGNVVIQIENSGVVPEHIRPRFWDKYVTSQKEEGAGLGTYSACLLAKAQGGTTQLQVDDLQNKTIVTVCLPAAT", "soluble on expression in E. coli": "not soluble"}, {"sequence": "MGSDKIHHHHHHMKASDFREWVGKITQLSRGQKEQTKHKLGGMVPRIEVAKWLESSFEPICPVCQSNHFYRWGYQAGLQRFYCRMCKHTFTAISGTPLARLRHKDQWLNYSAALIEGLTVRASARQCRIDKNTSFRWRHRFLTLPAAAKANHLEGIVEADETFFPVSCKGQRQLDRPPRKRGKQIHMRGTGKDQVPVLIVRDRSGATADFMLDAIDRKAIEPPLRTVLEKDVIFCSDGAAVYRSVARSLGITHRPVNLAAGVRVIAGVYHIQNVNAYHSRLKQWMKRFHGVATRYLENYLGWFRWLDQQENLSSPIVPLQAALGRENQFQLLTNT", "soluble on expression in E. coli": "not soluble"}, {"sequence": "MGSDKIHHHHHHMKATLKSLRETKANPAVSIFVKTHREHPANDKDPIALKNQLKVVEERLTNEYDKRTATTILDNIHAKTKEHNHNLNLDTLAIFASTDDVQVIRMPIDTTERVVISHRFATRDLVRDMASAVHYYTLVLTRDKARLIEVSNDRVIREFDLDDTAQNNMENIPFPIDNNGLHTTSDGGSDRSANNDSSALKEFFNQVDKSVQELWGEHKMPLVVVGDTKNIGYYKDVCDRPDNIIATVSNATNLEEGSAQHIINSVQEAVEGYRTSLHQAALGEIDKARGANRLQTDLQEVYRSAFQGVGDTLYVRRGYIQPAKIDEKAQTLSLADDSGAEGITDDAIGEIIEHVIHNGGKAVFMPQDIMSEDQPIALVTRY", "soluble on expression in E. coli": "not soluble"}, {"sequence": "MGSDKIHHHHHHMKATSSFKGQTTGLYIVPTPIGNLEDMTYRAVRILQESDLVAAEDTRQTMKLFNHFKIETKLVSYHEHNKQVSGARLLADLHAGKQIALVSDAGMPGISDPGSDLIREAIAEDIPVIVLPGANAALTALVASGLATERFLYYGFLPRKKKERREALETVRYEKGSLIFYEAPHRLKEMLGALRDVLGDRQLTLARELTKRYEEYIRGSVTEALEWAEEEVRGEFVVIVEGSTEERPAEEEQKADPLQQIERYIEQGEKPNAALKRVAKERGLDRQELYLRYHES", "soluble on expression in E. coli": "not soluble"}]}]}
